The target of this assay is HECT domain of Nedd4, Y605A (as used for SPR) (UniProt P46934). Nature of the assay: SPR. Background: In SPR one partner is held on a chip, and binding of the other changes the refractive index at the surface.
Chain of HECT domain of Nedd4, Y605A (as used for SPR) (P46934 938-1319 Y1024A): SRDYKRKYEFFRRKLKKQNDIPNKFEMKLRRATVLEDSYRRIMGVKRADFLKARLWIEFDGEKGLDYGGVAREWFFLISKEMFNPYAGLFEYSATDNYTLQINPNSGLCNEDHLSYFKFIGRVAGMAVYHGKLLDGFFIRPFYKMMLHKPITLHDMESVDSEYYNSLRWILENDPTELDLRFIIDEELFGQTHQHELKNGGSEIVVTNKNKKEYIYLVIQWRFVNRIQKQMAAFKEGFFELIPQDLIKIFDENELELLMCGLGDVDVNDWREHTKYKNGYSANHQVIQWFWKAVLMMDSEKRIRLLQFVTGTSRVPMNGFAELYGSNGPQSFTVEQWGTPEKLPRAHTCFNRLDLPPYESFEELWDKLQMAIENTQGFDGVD

“ubiquitin (monomeric) (from UniProt P0CG48 1-76) (natural protein)” yielded a fold decrease in binding against wild-type HECT^Nedd4 of 20 fold.

The values are drawn from publication PMC3077247.
